Reference: the supplement of paper PMC7877785
± gives the uncertainty stated by the source.

Experiment: self-splicing fitness, log relative to wild type (ln ratio); higher = more splicing; Tetrahymena group I intron in knt gene, E. coli kanamycin selection, DiMSum; sequences stand for … in CUCUCU…GGAGGGAAAAGUUAUCAGGCAUGCACCUGGUAGCUAGUCUUUAAACCAAUAGAUUGCAUCGGUUUAAAAGGCAAGACCGUCAAAUUGCGGGAAAGGGGUCAACAGCCGUUCAGUACCAAGUCUCAGGGGAAACUUUGAGAUGGCCUUGCAAAGGGUAUGGUAAUAAGCUGACGGACAUGGUCCUAACCACGCAGCCAAGUCCUAAGUCAACAGAUCUUCUGUUGAUAUGGAUGCAGUUCACAGACUAAAUGUCGGUCGGGGAAGAUGUAUUCUUCUCAUAAGAUAUAGUCGGACCUCUCCUUAAUGGGAGCUAGCGGAUGAAGUGAUGCAACACUGGAGCCGCUGGGAACUAAUUUGUAUGCGAAAGUAUAUUGAUUAGUUUUGGAGUACUCGUGGUCG
How it was run: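 Fitness was computed with DiMSum as the error-weighted combination of replicate fold changes, kanamycin versus none, each normalised to wild type. The library randomised all eight intron nucleotides of the P1ex region, with the intron placed in the knt kanamycin-resistance gene on pET-22b(+) in E. coli BL21(DE3). Six replicate transformations were grown overnight at 37°C or 30°C on LB agar with or without 25 μg/mL kanamycin, plus 100 μg/mL carbenicillin, 50 μM IPTG and 0.2% rhamnose. Pooled colonies were amplicon-sequenced on an Illumina HiSeq 2500.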

Row | Sequence | self-splicing fitness (ln) (30 °C) | self-splicing fitness (ln) (37 °C)
1 | AUACAGCAAUAUUACGUUGA | -2.53 ± 0.095 | -1.44 ± 0.088
2 | GGUCAGCAAUAUUACGUGAC | -2.08 ± 0.17 | -2 ± 0.24
3 | AACGAGCAAUAUUACGAUUA | -1.89 ± 0.16 | -1.02 ± 0.16
4 | AUGGAGCAAUAUUACGGUCC | -3 ± 0.32 | -0.466 ± 0.31
5 | CGCGAGCAAUAUUACGUUUA | -3.98 ± 0.25 | -3.3 ± 0.28
6 | CACAAGCAAUAUUACGGAAG | -0.736 ± 0.055 | -0.887 ± 0.072
7 | AAUCAGCAAUAUUACGAGUA | -1.43 ± 0.081 | 0.415 ± 0.083
8 | UCUUAGCAAUAUUACGGUAU | -4.43 ± 0.39 | -2.85 ± 0.29
9 | AUCCAGCAAUAUUACGUAUA | -0.94 ± 0.11 | -1.11 ± 0.14
10 | CAUGAGCAAUAUUACGUGGC | -3.55 ± 0.25 | -2.46 ± 0.24
11 | CAUGAGCAAUAUUACGAGUA | -2.36 ± 0.21 | -1.12 ± 0.24
12 | CCGCAGCAAUAUUACGACGA | -0.105 ± 0.077 | -0.259 ± 0.084
13 | CCUCAGCAAUAUUACGCUGC | -3.53 ± 0.21 | -1.69 ± 0.24
14 | GGUAAGCAAUAUUACGAAUG | -2.23 ± 0.29 | -2.81 ± 0.36
15 | GCACAGCAAUAUUACGAAGG | -1.31 ± 0.065 | -0.444 ± 0.096
16 | AAGUAGCAAUAUUACGGUAU | -2.25 ± 0.097 | -1.88 ± 0.092
17 | CUUAAGCAAUAUUACGCACG | -1.62 ± 0.14 | -0.394 ± 0.16
18 | ACUCAGCAAUAUUACGCCUA | -0.864 ± 0.15 | -0.0704 ± 0.12
19 | UGUAAGCAAUAUUACGGCGC | -1.87 ± 0.18 | -1.43 ± 0.25
20 | AGUUAGCAAUAUUACGUUAC | -3.26 ± 0.3 | -2.69 ± 0.33
21 | AUACAGCAAUAUUACGGGGA | -2.98 ± 0.21 | -2.3 ± 0.14
22 | UUCAAGCAAUAUUACGGCCG | -0.747 ± 0.14 | 0.0541 ± 0.16

Row | Sequence | self-splicing fitness (ln) (30 °C) | self-splicing fitness (ln) (37 °C)
23 | CCCUAGCAAUAUUACGCUCA |  | -2.67 ± 0.36
24 | AAUUAGCAAUAUUACGUGUA | -2.21 ± 0.15 | -1.41 ± 0.12
25 | GGCAAGCAAUAUUACGGUAG | -2.27 ± 0.11 | -2.2 ± 0.11
26 | AGCAAGCAAUAUUACGUCUU | -1.38 ± 0.068 | -0.234 ± 0.074
27 | UUUCAGCAAUAUUACGCGAU | -3.39 ± 0.15 | -2.47 ± 0.16
28 | UUCCAGCAAUAUUACGAUCC | -1.46 ± 0.45 | 
29 | AAGUAGCAAUAUUACGCGUU | -2.09 ± 0.18 | -0.705 ± 0.17
30 | CGACAGCAAUAUUACGGACU | -0.957 ± 0.072 | -0.875 ± 0.11
31 | UAAGAGCAAUAUUACGAGUG | -3.74 ± 0.23 | -1.16 ± 0.22
32 | UCGAAGCAAUAUUACGACAU | -3.755 ± 0.027 | -2.29 ± 0.038
33 | UUCUAGCAAUAUUACGGAAU | -4.1 ± 0.39 | -1.91 ± 0.33
34 | CUACAGCAAUAUUACGAGGA | -3.4 ± 0.2 | -3.21 ± 0.27
35 | UACUAGCAAUAUUACGACCG | -0.634 ± 0.13 | 0.287 ± 0.16
36 | UCAUAGCAAUAUUACGUAAG | -1.66 ± 0.1 | -1.91 ± 0.15
37 | AUUUAGCAAUAUUACGGAUU | -2.1 ± 0.21 | -0.519 ± 0.2
38 | CGCUAGCAAUAUUACGUAAA | -2.46 ± 0.2 | -1.33 ± 0.31
39 | ACGAAGCAAUAUUACGCCAU | -4.46 ± 0.39 | -3.02 ± 0.26
40 | GUUUAGCAAUAUUACGAUGU | -1.16 ± 0.11 | -0.261 ± 0.14
41 | AUCAAGCAAUAUUACGACUU | -0.501 ± 0.049 | 0.297 ± 0.064
42 | GCAGAGCAAUAUUACGUUCC |  | -1.51 ± 0.29
43 | CACGAGCAAUAUUACGUUUC | -3.42 ± 0.17 | -2.42 ± 0.22
